For the series, the target named is ZF9-MQ1 (synthetic). Briefly: cell_activity; MYC mRNA down-regulation in A549 and HCC95, 72 h. To be noted: tags: NLS, MQ1 DNA methyltransferase, HA.

Among the data in patent publication US20240132559, “COMPOSITIONS AND METHODS FOR MODULATING MYC EXPRESSION” (FLAGSHIP PIONEERING INNOVATIONS V, INC., published 2024) are EC50 values, retold here.

ZF9-MQ1 (synthetic), sequence (chain, as listed by the source): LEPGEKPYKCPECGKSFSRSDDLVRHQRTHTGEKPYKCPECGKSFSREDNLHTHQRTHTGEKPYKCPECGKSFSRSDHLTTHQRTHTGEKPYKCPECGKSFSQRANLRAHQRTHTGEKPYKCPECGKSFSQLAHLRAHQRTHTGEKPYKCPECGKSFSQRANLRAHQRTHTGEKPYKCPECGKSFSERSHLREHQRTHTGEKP

B1: ZF9 target site in MYC promoter (dsDNA)
DNA 1: AGCAAAAGAAAATGGTAGGCG
DNA 2: CGCCTACCATTTTCTTTTGCT
The molecule B1 displayed an EC50 of 0.08 ug/ml LNP/mRNA.
